Test results taken from patent publication US20240156980A1 (Molecular Partners, published 2024).

Legend:
[1] = biological target: T1, human EGFR on tumor cells (human, UniProt P00533 25-1210); test: cell-based or functional assay
[2] = biological target: T1, human EGFR on tumor cells; test: flow cytometry on HCT 116 tumor cells, detection with anti-DARPin antibodies
Protocol: (§1) The determination of CD3 binding was performed with human CD3 on Jurkat cells, and binding to hEGFR on cells with HCT116 tumor cells, using Flow Cytometer Attune Nxt. A titration of prodrug DARPin molecules was incubated with 200′000 cells per well (for both Jurkat and HCT116 cells) for 30 min at 4° C. After washing, CD3 binding of DARPin® molecule was detected by 1:1000-diluted anti-DARPin® Antibody-Mix (1 h incubation at 4° C.) with the corresponding secondary antibody anti-rabbit IgG Alexa Fluor 488 (30 min incubation at 4° C.), which was added after washing off excess anti-DARPin Antibodies. Cells were subsequently washed and stained for livedead (aqua, 1:1000, thermofisher) and resuspended in Cytofix fixation buffer (BD Biosciences). Median of mean fluorescence intensities of Alexa Fluor 488 binding on live cells were measured by Flow Cytometry and data was plotted using GraphPad Prism 8.

human CD3 on T cells [3] = biological target: T2, human CD3 on T cells (human, UniProt P07766 23-207; P09693 23-182; P04234 22-171); test: flow cytometry on Jurkat cells, detection with anti-DARPin antibodies and anti-rabbit IgG Alexa Fluor 488, MFI [column T-cell binding]
T2 construct: whole, on cells; also called human CD3 on Jurkat wt cells; CD3 on pan T-cells
Protocol: as §1

human CD3 on T cells [4] = biological target: T2, human CD3 on T cells; test: cell-based or functional assay
[5] = biological target: T3, CD3-specific binding domain C7v14; test: SPR validation of down-tuned binders
T3 construct: Used as analyte in SPR; also called hC22_88B02v14
T3 chain: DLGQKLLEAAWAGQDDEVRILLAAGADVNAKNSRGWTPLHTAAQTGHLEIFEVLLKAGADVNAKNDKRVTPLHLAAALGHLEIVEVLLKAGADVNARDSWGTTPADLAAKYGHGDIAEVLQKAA

T2 sequence (P07766 23-207, chain 1 of 3): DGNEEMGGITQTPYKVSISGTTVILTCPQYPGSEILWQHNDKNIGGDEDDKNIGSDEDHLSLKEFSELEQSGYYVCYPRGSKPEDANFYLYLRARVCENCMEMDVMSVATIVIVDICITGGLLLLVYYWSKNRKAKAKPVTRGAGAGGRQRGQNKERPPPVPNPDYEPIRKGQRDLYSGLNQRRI
T2 sequence (P09693 23-182, chain 2 of 3): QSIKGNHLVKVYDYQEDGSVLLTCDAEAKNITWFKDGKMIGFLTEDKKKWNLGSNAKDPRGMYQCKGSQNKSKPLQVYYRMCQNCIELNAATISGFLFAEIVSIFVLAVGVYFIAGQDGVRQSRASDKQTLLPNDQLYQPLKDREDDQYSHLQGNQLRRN
T2 sequence (P04234 22-171, chain 3 of 3): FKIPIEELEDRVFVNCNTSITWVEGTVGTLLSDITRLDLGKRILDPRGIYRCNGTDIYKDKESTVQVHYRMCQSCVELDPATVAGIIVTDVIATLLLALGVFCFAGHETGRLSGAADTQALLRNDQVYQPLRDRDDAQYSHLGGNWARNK

B1: Active TCE EGFR-C7v14-6His (designed binder)
chain: MGSDLGYKLLRAAFHGQDDEVRILLAAGADVNAKDLIGQTPLHNAAWVGHLEIVEVLLKAGADVNAKDYYGNTPLHLAAHDGHLEIVEVLLKAGADVNAQDTWGETPADLATNAGHEDIAEVLQKAAGSPTPTPTTPTPTPTTPTPTPTGSDLGQKLLEAAWAGQDDEVRILLAAGADVNAKNSRGWTPLHTAAQTGHLEIFEVLLKAGADVNAKNDKRVTPLHLAAALGHLEIVEVLLKAGADVNARDSWGTTPADLAAKYGHGDIAEVLQKAAGSHHHHHH
With B1 the “T-cell activation EC50 (CD25 on CD8+ T cells), EGFR+ HCT 116 tumor cells and pan T-cells” value [1] was 1.6 pM and the “T-cell activation EC50 (CD25 on CD8+ T cells), EGFR+++ A431 tumor cells and pan T-cells” value [1] was 3.7 pM.

B2: CD3-PDD CL EGFR-C7v119-[Linker#2]-06E05v07-6His (designed binder)
chain: MGSDLGYKLLRAAFHGQDDEVRILLAAGADVNAKDLIGQTPLHNAAWVGHLEIVEVLLKAGADVNAKDYYGNTPLHLAAHDGHLEIVEVLLKAGADVNAQDTWGETPADLATNAGHEDIAEVLQKAAGSPTPTPTTPTPTPTTPTPTPTGSDLGQKLLEAAWAGQDDEVRELLKAGADVNAKNSRGWTPLHTAAQTGHLEIFEVLLKAGADVNAKDDKGVTPLHLAAALGHLEIVEVLLKAGADVNAQDSWGTTPADLAAKYGHEDIAEVLQKAASGGGGGPQASTGRSGGGGGGSDLGKKLLQAARAGQLDEVRELLKAGADVNAKDAKGLTPLHLAAYHGHLEIVEVLLKAGADVNAKDVYGWTPLHIAAASGHLEIVEVLLKAGADVNAKDWLGWTPLHLAASAGHLEIVEVLLKAGADVNAQDKSGKTPADLAARAGHQDIAEVLQKAAGSHHHHHH
B2 was tested, and the EC50 [2] was 354 pM and the binding result (human CD3 on T cells [3]) was “no binding (tested: 100000 pM)”.

B3: CD3-PDD CL EGFR-C7v122-[Linker#2]-06E05v07-6His (designed binder)
chain: MGSDLGYKLLRAAFHGQDDEVRILLAAGADVNAKDLIGQTPLHNAAWVGHLEIVEVLLKAGADVNAKDYYGNTPLHLAAHDGHLEIVEVLLKAGADVNAQDTWGETPADLATNAGHEDIAEVLQKAAGSPTPTPTTPTPTPTTPTPTPTGSDLGQKLLEAAWAGQDDEVRELLKAGADVNAKNSRGWTPLHTAAQTGHLEIFEVLLKAGADVNAKNDKRVTPLHLAAALGHLEIVEVLLKAGADVNARDSWGTTPADLAAKYGHQDIAEVLQKAASGGGGGPQASTGRSGGGGGGSDLGKKLLQAARAGQLDEVRELLKAGADVNAKDAKGLTPLHLAAYHGHLEIVEVLLKAGADVNAKDVYGWTPLHIAAASGHLEIVEVLLKAGADVNAKDWLGWTPLHLAASAGHLEIVEVLLKAGADVNAQDKSGKTPADLAARAGHQDIAEVLQKAAGSHHHHHH
With B3 the EC50 [2] was 410 pM and the binding result (human CD3 on T cells [3]) was “no binding”.

B4: CD3-PDD NCL EGFR-C7v119-[NCL1]-06E05v05-6His (designed binder)
chain: MGSDLGYKLLRAAFHGQDDEVRILLAAGADVNAKDLIGQTPLHNAAWVGHLEIVEVLLKAGADVNAKDYYGNTPLHLAAHDGHLEIVEVLLKAGADVNAQDTWGETPADLATNAGHEDIAEVLQKAAGSPTPTPTTPTPTPTTPTPTPTGSDLGQKLLEAAWAGQDDEVRELLKAGADVNAKNSRGWTPLHTAAQTGHLEIFEVLLKAGADVNAKDDKGVTPLHLAAALGHLEIVEVLLKAGADVNAQDSWGTTPADLAAKYGHEDIAEVLQKAASGPTPTPTTPTPTPTTPTPTPTGSDLGKKLLQAARAGQLDEVRELLKAGADVNAKDAKGLTPLHLAAYHGHLEIVEVLLKAGADVNAKDVYGWTPLHIAAASGHLEIVEVLLKAGADVNAKDALGWTPLHLAASHGHLEIVEVLLKAGADVNAQDKSGKTPADLAARAGHQDIAEVLQKAAGSHHHHHH
For B4, the “tumor cell killing EC50 (LDH release), HCT 116 tumor cells and pan T-cells” value (human CD3 on T cells [4]) was 82.1 pM.

B5: CD3-PDD NCL EGFR-C7v119-[NCL1]-06E05v07-6His (designed binder)
chain: MGSDLGYKLLRAAFHGQDDEVRILLAAGADVNAKDLIGQTPLHNAAWVGHLEIVEVLLKAGADVNAKDYYGNTPLHLAAHDGHLEIVEVLLKAGADVNAQDTWGETPADLATNAGHEDIAEVLQKAAGSPTPTPTTPTPTPTTPTPTPTGSDLGQKLLEAAWAGQDDEVRELLKAGADVNAKNSRGWTPLHTAAQTGHLEIFEVLLKAGADVNAKDDKGVTPLHLAAALGHLEIVEVLLKAGADVNAQDSWGTTPADLAAKYGHEDIAEVLQKAASGPTPTPTTPTPTPTTPTPTPTGSDLGKKLLQAARAGQLDEVRELLKAGADVNAKDAKGLTPLHLAAYHGHLEIVEVLLKAGADVNAKDVYGWTPLHIAAASGHLEIVEVLLKAGADVNAKDWLGWTPLHLAASAGHLEIVEVLLKAGADVNAQDKSGKTPADLAARAGHQDIAEVLQKAAGSHHHHHH
With B5 the EC50 [2] was 503 pM and the binding result (human CD3 on T cells [3]) was “no binding (tested: 100000 pM)”.

B6: CD3-PDD NCL EGFR-C7v122-[NCL1]-06E05v05-6His (designed binder)
chain: MGSDLGYKLLRAAFHGQDDEVRILLAAGADVNAKDLIGQTPLHNAAWVGHLEIVEVLLKAGADVNAKDYYGNTPLHLAAHDGHLEIVEVLLKAGADVNAQDTWGETPADLATNAGHEDIAEVLQKAAGSPTPTPTTPTPTPTTPTPTPTGSDLGQKLLEAAWAGQDDEVRELLKAGADVNAKNSRGWTPLHTAAQTGHLEIFEVLLKAGADVNAKNDKRVTPLHLAAALGHLEIVEVLLKAGADVNARDSWGTTPADLAAKYGHQDIAEVLQKAASGPTPTPTTPTPTPTTPTPTPTGSDLGKKLLQAARAGQLDEVRELLKAGADVNAKDAKGLTPLHLAAYHGHLEIVEVLLKAGADVNAKDVYGWTPLHIAAASGHLEIVEVLLKAGADVNAKDALGWTPLHLAASHGHLEIVEVLLKAGADVNAQDKSGKTPADLAARAGHQDIAEVLQKAAGSHHHHHH
With B6 the “tumor cell killing EC50 (LDH release), HCT 116 tumor cells and pan T-cells” value (human CD3 on T cells [4]) was > 100 pM.

B7: CD3-PDD NCL EGFR-C7v122-[NCL1]-06E05v07-6His (designed binder)
chain: MGSDLGYKLLRAAFHGQDDEVRILLAAGADVNAKDLIGQTPLHNAAWVGHLEIVEVLLKAGADVNAKDYYGNTPLHLAAHDGHLEIVEVLLKAGADVNAQDTWGETPADLATNAGHEDIAEVLQKAAGSPTPTPTTPTPTPTTPTPTPTGSDLGQKLLEAAWAGQDDEVRELLKAGADVNAKNSRGWTPLHTAAQTGHLEIFEVLLKAGADVNAKNDKRVTPLHLAAALGHLEIVEVLLKAGADVNARDSWGTTPADLAAKYGHQDIAEVLQKAASGPTPTPTTPTPTPTTPTPTPTGSDLGKKLLQAARAGQLDEVRELLKAGADVNAKDAKGLTPLHLAAYHGHLEIVEVLLKAGADVNAKDVYGWTPLHIAAASGHLEIVEVLLKAGADVNAKDWLGWTPLHLAASAGHLEIVEVLLKAGADVNAQDKSGKTPADLAARAGHQDIAEVLQKAAGSHHHHHH
For B7, the EC50 [2] was 593 pM and the binding result (human CD3 on T cells [3]) was “no binding”.

B8: Binder #5 (designed binder)
chain: MRGSHHHHHHGSDLGKKLLQAARAGQLDEVRELLKAGADVNAKDAKGLTPLHLAAYHGHLEIVEVLLKAGADVNAKDVYGWTPLHIAAASGHLEIVEVLLKAGADVNAKDWLGITPLHLAASHGHLEIVEVLLKAGADVNAQDKSGKTPADLAARAGHQDIAEVLQKAA
notes: N-terminal His-tag; also called 06E05v30
B8: binds [5].

B9: Binder #7 (designed binder)
chain: MRGSHHHHHHGSDLGKKLLQAARAGQLDEVRELLKAGADVNAKDAKGLTPLHLAAYHGHLEIVEVLLKAGADVNAKDVYGWTPLHIAAASGHLEIVEVLLKAGADVNAKDALGITPLHLAASHGHLEIVEVLLKAGADVNAQDKSGKTPADLAARAGHQDIAEVLQKAA
notes: N-terminal His-tag; also called 06E05v32
B9: binds [5].

B10: Binder #12 (designed binder)
chain: MRGSHHHHHHGSDLGKKLLQAARAGQLDEVRELLKAGADVNAKDAKGLTPLHLAAYHGHLEIVEVLLKAGADVNAKDVYGWTPLHIAAASGHLEIVEVLLKAGADVNAKDWLGATPLHLAASAGHLEIVEVLLKAGADVNAQDKSGKTPADLAARAGHQDIAEVLQKAA
notes: N-terminal His-tag; also called 06E05v37
B10: binds [5].

B11: Binder #9 (designed binder)
chain: MRGSHHHHHHGSDLGKKLLQAARAGQLDEVRELLKAGADVNAKDAKGLTPLHLAAYHGHLEIVEVLLKAGADVNAKDVYGWTPLHIAAASGHLEIVEVLLKAGADVNAKDWLGATPLHLAASHGHLEIVEVLLKAGADVNAQDKSGKTPADLAARAGHQDIAEVLQKAA
notes: N-terminal His-tag; also called 06E05v34
B11: binds [5].

B12: Binder #8 (designed binder)
chain: MRGSHHHHHHGSDLGKKLLQAARAGQLDEVRELLKAGADVNAKDAKGLTPLHLAAYHGHLEIVEVLLKAGADVNAKDVYGWTPLHIAAASGHLEIVEVLLKAGADVNAKDWLGITPLHLAASAGHLEIVEVLLKAGADVNAQDKSGKTPADLAARAGHQDIAEVLQKAA
notes: N-terminal His-tag; also called 06E05v33
B12: binds [5].

B13: Binder #11 (designed binder)
chain: MRGSHHHHHHGSDLGKKLLQAARAGQLDEVRELLKAGADVNAKDAKGLTPLHLAAYHGHLEIVEVLLKAGADVNAKDVYGWTPLHIAAASGHLEIVEVLLKAGADVNAKDALGATPLHLAASHGHLEIVEVLLKAGADVNAQDKSGKTPADLAARAGHQDIAEVLQKAA
notes: N-terminal His-tag; also called 06E05v36
B13: binds [5].

B14: Binder #6 (designed binder)
chain: MRGSHHHHHHGSDLGKKLLQAARAGQLDEVRELLKAGADVNAKDAKGLTPLHLAAYHGHLEIVEVLLKAGADVNAKDVAGWTPLHIAAASGHLEIVEVLLKAGADVNAKDWLGITPLHLAASHGHLEIVEVLLKAGADVNAQDKSGKTPADLAARAGHQDIAEVLQKAA
notes: N-terminal His-tag; also called 06E05v31
B14: binds [5].

B15: Binder #10 (designed binder)
chain: MRGSHHHHHHGSDLGKKLLQAARAGQLDEVRELLKAGADVNAKDAKGLTPLHLAAYHGHLEIVEVLLKAGADVNAKDVAGWTPLHIAAASGHLEIVEVLLKAGADVNAKDWLGATPLHLAASHGHLEIVEVLLKAGADVNAQDKSGKTPADLAARAGHQDIAEVLQKAA
notes: N-terminal His-tag; also called 06E05v35
B15: binds [5].
